{"source": "patent US20210147507A1", "about": "“METHODS TO AUGMENT OR ALTER SIGNAL TRANSDUCTION” (Bellicum Pharmaceuticals, Inc., priority 2017, published 2021)", "molecules": {"B1": {"name": "T317A (protein)", "chain": "GFGDVGALESLRGNADLAYILSMEPCGHCLIINNVNFCRESGLRTRTGSNIDCEKLRRRFSSLHFMVEVKGDLTAKKMVLALLELARQDHGALDCCVVVILSHGCQASHLQFPGAVYGTDGCPVSVEKIVNIFNGTSCPSLGGKPKLFFIQACGGEQKDHGFEVASTSPEDESPGSNPEPDAAPFQEGLRTFDQLDAISSLPTPSDIFVSYSTFPGFVSWRDPKSGSWYVETLDDIFEQWAHSEDLQSLLLRVANAVSVKGIYKQMPGCFNFLRKKLFFKTSASRA"}, "B2": {"name": "S196A (protein)", "chain": "B1 chain with S62A, A183T"}, "B3": {"name": "N405Q-T317S (protein)", "chain": "B1 chain with A183S, N271Q"}, "B4": {"name": "D330E (protein)", "chain": "B1 chain with A183T, D196E"}, "B5": {"name": "D330A-N405Q (protein)", "chain": "B1 chain with A183T, D196A, N271Q"}, "B6": {"name": "F404Y (protein)", "chain": "B1 chain with A183T, F270Y"}, "B7": {"name": "D330A-S183A (protein)", "chain": "B1 chain with S49A, A183T, D196A"}, "B8": {"name": "D330A-S144A (protein)", "chain": "B1 chain with S10A, A183T, D196A"}, "B9": {"name": "F404T (protein)", "chain": "B1 chain with A183T, F270T"}, "B10": {"name": "F406W (protein)", "chain": "B1 chain with A183T, F272W"}, "B11": {"name": "F406A (protein)", "chain": "B1 chain with A183T, F272A"}, "B12": {"name": "N405Q-S144D (protein)", "chain": "B1 chain with S10D, A183T, N271Q"}, "B13": {"name": "N405Q-S144A (protein)", "chain": "B1 chain with S10A, A183T, N271Q"}, "B14": {"name": "D330A-S144D (protein)", "chain": "B1 chain with S10D, A183T, D196A"}, "B15": {"name": "D330A-S196A (protein)", "chain": "B1 chain with S62A, A183T, D196A"}, "B16": {"name": "S183A (protein)", "chain": "B1 chain with S49A, A183T"}, "B17": {"name": "D330A (protein)", "chain": "B1 chain with A183T, D196A"}, "B18": {"name": "N405Q-S196D (protein)", "chain": "B1 chain with S62D, A183T, N271Q"}, "B19": {"name": "F406Y (protein)", "chain": "B1 chain with A183T, F272Y"}, "B20": {"name": "S195A (protein)", "chain": "B1 chain with S61A, A183T"}, "B21": {"name": "N405Q-S144Aco (protein, UniProt P55211 1-416, looked up, variant N405Q S144A)", "chain": "MDEADRRLLRRCRLRLVEELQVDQLWDALLSRELFRPHMIEDIQRAGSGSRRDQARQLIIDLETRGSQALPLFISCLEDTGQDMLASFLRTNRQAAKLSKPTLENLTPVVLRPEIRKPEVLRPETPRPVDIGSGGFGDVGALEALRGNADLAYILSMEPCGHCLIINNVNFCRESGLRTRTGSNIDCEKLRRRFSSLHFMVEVKGDLTAKKMVLALLELAQQDHGALDCCVVVILSHGCQASHLQFPGAVYGTDGCPVSVEKIVNIFNGTSCPSLGGKPKLFFIQACGGEQKDHGFEVASTSPEDESPGSNPEPDATPFQEGLRTFDQLDAISSLPTPSDIFVSYSTFPGFVSWRDPKSGSWYVETLDDIFEQWAHSEDLQSLLLRVANAVSVKGIYKQMPGCFQFLRKKLFFKTS", "modifications": "codon-optimized; in iC9 construct"}, "B22": {"name": "N405Qco (protein, UniProt P55211 1-416, looked up, variant N405Q)", "chain": "B21 chain with A144S", "modifications": "codon-optimized; in iC9 construct"}, "B23": {"name": "N405Q-T317Sco (protein, UniProt P55211 1-416, looked up, variant N405Q T317S)", "chain": "B21 chain with A144S, T317S", "modifications": "codon-optimized; in iC9 construct"}}, "tested_on": "chimeric Caspase-9 polypeptide", "sequence (P62942 2-108 F37V limits assumed)": "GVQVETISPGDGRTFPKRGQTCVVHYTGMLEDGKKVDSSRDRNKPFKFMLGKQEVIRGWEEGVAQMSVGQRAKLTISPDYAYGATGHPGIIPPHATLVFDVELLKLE", "test": "Caspase-9 mutant classes and basal activity (Table 5)", "type": "cell-based", "settings": "Caspase-9 mutant class; for IC50: ligand IC50 compared with unmodified chimeric Caspase-9", "source_text": "Even though homo-dimerization of wild-type initiator Caspase-9 is energetically unfavorable, making them mostly monomers in solution [14-16], the low-level inherent basal activity of unprocessed Caspase-9 [15, 17] is enhanced in the presence of the Apaf-1-based “apoptosome”, its natural allosteric regulator [6]. Moreover, supra-physiological expression levels and/or co-localization could lead to proximity-driven dimerization, further enhancing basal activation. The modified cells of the present application may comprise nucleic acids coding for a chimeric Caspase-9 polypeptide having lower basal signaling activity. Polynucleotides comprising Caspase-9 mutants with lower basal signaling may be expressed in the modified cells used for cell therapy herein. In these examples, the modified cells may include a safety switch, comprising a polynucleotide encoding a lower basal signaling chimeric Caspase-9 polypeptide. In the event of an adverse event following administration of the modified cells comprising the chimeric signaling polypeptides or chimeric antigen receptors herein, Caspase-9 activity may be induced by administering the dimerizer to the patient, thus inducing apoptosis and clearance of some, or all of the modified cells. In some examples, the amount of dimerizer administered may be determined as an amount designed to remove the highest amount, at least 80% or 90% of the modified cells. In other examples, the amount of dimerizer administered may be determined as an amount designed to remove only a portion of the modified cells, in order to alleviate negative symptoms or conditions, while leaving a sufficient amount of therapeutic modified cells in the patient, in order to continue therapy. Methods for using chimeric Caspase-9 polypeptides to induce apoptosis are discussed in PCT Application Number PCT/US2011/037381 by Malcolm K. Brenner et al., titled Methods for Inducing Selective Apoptosis, filed May 20, 2011, and in U.S. patent application Ser. No. 13/112,739 by Malcolm K. Brenner et al., titled Methods for Inducing Selective Apoptosis, filed May 20, 2011, issued Jul. 28, 2015 as U.S. Pat. No. 9,089,520. Chimeric caspase polypeptides having modified basal activity are discussed in PCT Application Serial Number PCT/US2014/022004 by David Spencer et al., titled Modified Caspase Polypeptides and Uses Thereof, filed Mar. 7, 2014, published Oct. 9, 2014 as WO2014/164348, and in U.S. patent application Ser. No. 13/792,135 by David Spencer et al., titled Modified Caspase Polypeptides and Uses Thereof, filed Mar. 7, 2014; and in U.S. patent application Ser. No. 14/640,553 by Spencer et al., filed Mar. 6, 2015. Methods for inducing partial apoptosis of the therapeutic modified cells are discussed in PCT Application Number PCT/US14/040964 by Kevin Slawin et al., titled Methods for Inducing Partial Apoptosis Using Caspase Polypeptides, filed Jun. 4, 2014, published Dec. 11, 2014 as WO2014/197638, and in U.S. patent application Ser. No. 14/296,404 by Kevin Slawin et al., titled Methods for Inducing Partial Apoptosis Using Caspase Polypeptides, filed Jun. 4, 2014. These patent applications and publications are all incorporated by reference herein in their entireties.", "key": {"[1]": {"settings": "basal (ligand-independent) signaling compared with unmodified chimeric Caspase-9"}}, "note": "Residue numbers refer to the chain shown, from its start. Names and notes keep the numbering of the source.", "data": [{"molecule": "B1", "values": [{"measurement": "Basal Activity", "setting": "[1]", "result": "Decreased"}, {"measurement": "IC50", "result": "higher IC50"}]}, {"molecule": "B2", "values": [{"measurement": "Basal Activity", "setting": "[1]", "result": "Decreased"}, {"measurement": "IC50", "result": "higher IC50"}]}, {"molecule": "B3", "values": [{"measurement": "Basal Activity", "setting": "[1]", "result": "Decreased"}, {"measurement": "IC50", "result": "higher IC50"}]}, {"molecule": "B4", "values": [{"measurement": "Basal Activity", "setting": "[1]", "result": "Decreased"}, {"measurement": "IC50", "result": "higher IC50"}]}, {"molecule": "B5", "values": [{"measurement": "Basal Activity", "setting": "[1]", "result": "Decreased"}, {"measurement": "IC50", "result": "higher IC50"}]}, {"molecule": "B6", "values": [{"measurement": "Basal Activity", "setting": "[1]", "result": "Decreased"}, {"measurement": "IC50", "result": "higher IC50"}]}, {"molecule": "B7", "values": [{"measurement": "Basal Activity", "setting": "[1]", "result": "Decreased"}, {"measurement": "IC50", "result": "higher IC50"}]}, {"molecule": "B8", "values": [{"measurement": "Basal Activity", "setting": "[1]", "result": "Decreased"}, {"measurement": "IC50", "result": "higher IC50"}]}, {"molecule": "B9", "values": [{"measurement": "Basal Activity", "setting": "[1]", "result": "Decreased"}, {"measurement": "IC50", "result": "much higher"}]}, {"molecule": "B10", "values": [{"measurement": "Basal Activity", "setting": "[1]", "result": "Decreased"}, {"measurement": "IC50", "result": "higher IC50"}]}, {"molecule": "B11", "values": [{"measurement": "Basal Activity", "setting": "[1]", "result": "Decreased"}, {"measurement": "IC50", "result": "higher IC50"}]}, {"molecule": "B12", "values": [{"measurement": "Basal Activity", "setting": "[1]", "result": "Decreased"}, {"measurement": "IC50", "result": "higher IC50"}]}, {"molecule": "B13", "values": [{"measurement": "Basal Activity", "setting": "[1]", "result": "Decreased"}, {"measurement": "IC50", "result": "higher IC50"}]}, {"molecule": "B14", "values": [{"measurement": "Basal Activity", "setting": "[1]", "result": "Decreased"}, {"measurement": "IC50", "result": "higher IC50"}]}, {"molecule": "B15", "values": [{"measurement": "Basal Activity", "setting": "[1]", "result": "Decreased"}, {"measurement": "IC50", "result": "higher IC50"}]}, {"molecule": "B16", "values": [{"measurement": "Basal Activity", "setting": "[1]", "result": "Decreased"}, {"measurement": "IC50", "result": "higher IC50"}]}, {"molecule": "B17", "values": [{"measurement": "Basal Activity", "setting": "[1]", "result": "Decreased"}, {"measurement": "IC50", "result": "higher IC50"}]}, {"molecule": "B18", "values": [{"measurement": "Basal Activity", "setting": "[1]", "result": "Decreased"}, {"measurement": "IC50", "result": "higher IC50"}]}, {"molecule": "B19", "values": [{"measurement": "Basal Activity", "setting": "[1]", "result": "Decreased"}, {"measurement": "IC50", "result": "higher IC50"}]}, {"molecule": "B20", "values": [{"measurement": "Basal Activity", "setting": "[1]", "result": "Decreased"}, {"measurement": "IC50", "result": "higher IC50"}]}, {"molecule": "B21", "values": [{"measurement": "Basal Activity", "setting": "mutants marked * = predicted", "result": "Decreased"}]}, {"molecule": "B22", "values": [{"measurement": "Basal Activity", "setting": "[1]", "result": "Decreased"}, {"measurement": "IC50", "result": "higher IC50"}]}, {"molecule": "B23", "values": [{"measurement": "Basal Activity", "setting": "mutants marked * = predicted", "result": "Decreased"}]}]}
